Patent US20140087995A1 (published 2014)
Numbered stars: 1 amine (or outer) side, 2 acyl side, 3 side chain; on linkers, the order of the positions; unused ones are H or OH. Bridge positions count the residues as written; N and C are the ends. * marks the point of attachment. C20 diacid = O=C(O)CCCCCCCCCCCCCCCCCCC(=O)*; γGlu = O=C(O)[C@H](CCC(=O)[*:2])N[*:1]; AEEA = NCCOCCOCC(=O)O

T1: rat calcitonin receptor (rat, UniProt P32214 25-516)
T1 construct: whole, on cells; Used as membranes prepared from the transfected cells; also called rCTR; rat calcitonin (a) receptor
T1 sequence (looked up): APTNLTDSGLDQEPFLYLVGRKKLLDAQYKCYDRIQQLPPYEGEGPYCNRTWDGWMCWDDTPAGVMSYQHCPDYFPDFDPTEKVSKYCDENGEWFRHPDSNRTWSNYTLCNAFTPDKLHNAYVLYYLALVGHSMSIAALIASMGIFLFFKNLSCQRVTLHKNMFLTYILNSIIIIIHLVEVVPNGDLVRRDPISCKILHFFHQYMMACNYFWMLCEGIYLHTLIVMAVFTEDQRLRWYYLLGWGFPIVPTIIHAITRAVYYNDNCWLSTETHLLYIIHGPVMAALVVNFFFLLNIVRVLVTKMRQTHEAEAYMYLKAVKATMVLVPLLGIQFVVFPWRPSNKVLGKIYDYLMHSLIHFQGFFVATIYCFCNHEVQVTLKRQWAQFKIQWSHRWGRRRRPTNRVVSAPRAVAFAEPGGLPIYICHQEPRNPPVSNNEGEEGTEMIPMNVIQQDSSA

T2: human calcitonin receptor (human, UniProt P30988 25-474)
T2 construct: whole, on cells; Used as membranes prepared from the transfected cells (Assay VII); also called hCTR; hCT
T2 sequence (looked up): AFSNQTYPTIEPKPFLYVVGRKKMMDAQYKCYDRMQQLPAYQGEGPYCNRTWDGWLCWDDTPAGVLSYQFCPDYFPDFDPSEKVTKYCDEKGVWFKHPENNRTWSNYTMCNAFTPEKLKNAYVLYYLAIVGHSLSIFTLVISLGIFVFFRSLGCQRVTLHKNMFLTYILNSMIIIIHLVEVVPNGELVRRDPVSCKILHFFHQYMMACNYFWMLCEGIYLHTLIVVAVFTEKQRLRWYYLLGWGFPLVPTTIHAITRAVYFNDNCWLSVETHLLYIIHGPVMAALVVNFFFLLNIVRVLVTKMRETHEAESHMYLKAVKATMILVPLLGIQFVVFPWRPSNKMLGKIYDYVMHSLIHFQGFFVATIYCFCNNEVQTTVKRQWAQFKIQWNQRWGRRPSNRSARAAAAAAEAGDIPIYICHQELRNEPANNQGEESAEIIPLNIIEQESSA

T3: rat amylin receptor (rat calcitonin receptor + rat RAMP 3) (rat, UniProt P32214 25-516; Q9JJ73 23-147)
T3 construct: whole, on cells; Used as membranes prepared from the transfected cells; also called rAmylin-R; rat amylin 3(a) receptor
T3 sequence (looked up) 1: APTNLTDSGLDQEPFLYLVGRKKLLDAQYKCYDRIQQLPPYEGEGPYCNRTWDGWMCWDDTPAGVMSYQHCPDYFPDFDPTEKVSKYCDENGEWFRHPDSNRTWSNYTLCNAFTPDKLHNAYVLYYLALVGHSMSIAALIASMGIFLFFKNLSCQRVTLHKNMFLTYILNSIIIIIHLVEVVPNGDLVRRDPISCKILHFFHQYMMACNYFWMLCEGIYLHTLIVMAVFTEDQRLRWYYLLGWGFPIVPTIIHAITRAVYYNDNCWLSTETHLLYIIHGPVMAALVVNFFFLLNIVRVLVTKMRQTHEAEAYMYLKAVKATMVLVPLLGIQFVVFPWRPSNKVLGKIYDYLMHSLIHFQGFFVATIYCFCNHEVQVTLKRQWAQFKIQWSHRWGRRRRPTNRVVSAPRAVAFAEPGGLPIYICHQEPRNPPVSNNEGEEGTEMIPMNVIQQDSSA
T3 sequence (looked up) 2: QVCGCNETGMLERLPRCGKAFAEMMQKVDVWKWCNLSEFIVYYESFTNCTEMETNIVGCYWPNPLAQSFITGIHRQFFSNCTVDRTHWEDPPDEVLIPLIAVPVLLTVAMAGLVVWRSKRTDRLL


Key:
rat calcitonin receptor [1] = molecular target: T1, rat calcitonin receptor; test: ratio IC50 rat calcitonin receptor / IC50 rat amylin receptor (Assays VIII and VI)
[2] = molecular target: T2, human calcitonin receptor; test: ratio IC50 human calcitonin receptor / IC50 human amylin receptor (Assays VII and V)
Method: The resulting pellet was resuspended, homogenized and centrifuged (20.000 rpm, 15 min) in a buffer containing 20 mM Na-HEPES and 0.1 mM EDTA (pH 7.4, buffer 2). The resulting pellet was resuspended in buffer 2 and protein concentration was measured (BCA protein Assay, Pierce). The homogenate was kept cold during the whole procedure. The membranes were kept at −80° C. until use. The assay was performed in a 384 well Optiplate (PerkinElmer) in a total volume of 40 ul. Membranes were mixed with SPA beads. Final concentration of membranes 35 ng/μL final and SPA beads was 0.05 mg/well. Test-compounds were dissolved in DMSO and further diluted in assay buffer (50 mM Hepes, pH 7.4, 1 mM CaCl2, 5 mM MgCl₂, 0.1% OA and 0.02% Tween20). […] The final mixture was incubated with shaking at 400 rpm for 120 min at 25° C. prior to centrifugation (1500 rpm, 10 min). Samples were analyzed on TopCounter™ (Packard). The IC₅₀ was calculated using (one site binding competition analysis) GraphPad Prism5 as a measure of receptor affinity.
Membranes were prepared in the following way; the cells were rinsed with PBS and incubated with Versene for approximately 5 min before harvesting. The cells were flushed with PBS and the cell-suspension was centrifuged for 5 min at 1000 rpm. Cells were homogenized (Ultrathurrax) in a buffer containing 20 mM Na-HEPES and 10 mM EDTA (pH 7.4) and centrifuged at 20.000 rpm for 15 min. The resulting pellet was resuspended, homogenized and centrifuged (20.000 rpm, 15 min) in a buffer containing 20 mM Na-HEPES and 0.1 mM EDTA (pH 7.4, buffer 2). The resulting pellet was resuspended in buffer 2 and protein concentration was measured (BCA protein Assay, Pierce). The homogenate was kept cold during the whole procedure. The membranes were kept at −80° C. until use. Assay was performed in a 384 well Optiplate (PerkinElmer) in a total volume of 40 ul. Membranes were mixed with SPA beads.

rat calcitonin receptor [3] = molecular target: T1, rat calcitonin receptor; test: SPA competition with 125I-calcitonin, membranes of BHK cells with rat calcitonin receptor (Assay VIII)
[4] = molecular target: T3, rat amylin receptor (rat calcitonin …); test: SPA competition with 125I-rat amylin, membranes of BHK cells with rat calcitonin receptor + rat RAMP3 (Assay VI)

Ratio rCT/rAmylin binding (rat calcitonin receptor [1]) | Ratio hCT/hAmylin binding [2] | IC50 (rat calcitonin receptor [3]) | IC50 [4] | Binder
93.6 | 36.7 | 95.6 nM | 1.02 nM | KCNTATCATQRLAEFLRHSSPNFGAIPSSTNVGSNTY (C20 diacid-gGlu-2xOEG acylated on the alpha amino group of the N-terminal residue (Lys 1); disulfide Cys2-Cys7; C-terminal amide, Derivative of human amylin; also called compound 19)
71.3 | 25 | 79.9 nM | 1.12 nM | KCNTATCATQRLANFLRHSSPNFGAIPSSTNVGSETY (C20 diacid-gGlu acylated on the alpha amino group of the N-terminal residue (Lys 1); disulfide Cys2-Cys7; C-terminal amide, Derivative of human amylin; also called compound 23) [N^α1-[(4S)-4-carboxy-4-(19-carboxynonadecanoylamino)butanoyl]-[Arg17,Pro21,Pro27,Glu35]-h-amylin]
116 | 90 | 350 nM | 3.01 nM | KCNTATCATQRLANFLRHSSPNFGAIPSSTNVGSNTY (C20 diacid-gGlu-2xOEG acylated on the alpha amino group of the N-terminal residue (Lys 1); disulfide Cys2-Cys7; C-terminal amide, Derivative of human amylin; also called compound 24)
52 | 64.4 | 89.2 nM | 1.72 nM | KCNTATCATQRLANFLRHSSPNFGAIPSSTNVGSKTY (C20 diacid-gGlu acylated on the alpha amino group of the N-terminal residue (Lys 1); disulfide Cys2-Cys7; C-terminal amide, Derivative of human amylin; also called compound 34) [N^α1-[(4S)-4-carboxy-4-(19-carboxynonadecanoylamino)butanoyl]-[Arg17,Pro21,Pro27,Lys35]-h-amylin]
46.2 | 31.1 | 69.2 nM | 1.5 nM | KCNTATCATQRLANFLRHSSPNFGAIPSSTNVGHNTY (C20 diacid-gGlu acylated on the alpha amino group of the N-terminal residue (Lys 1); disulfide Cys2-Cys7; C-terminal amide, Derivative of human amylin; also called compound 40) [N^α1-[(4S)-4-carboxy-4-(19-carboxynonadecanoylamino)butanoyl]-[Arg17,Pro21,Pro27,His34]-h-amylin]
6.4 | 3.6 | 4.43 nM | 0.696 nM | {C20 diacid-γGlu-AEEA-AEEA}-KCNTATCATQRLAEFLRHSSPNFGAIPSSTNVGSNTP-NH2 (disulfide 2-7; SMILES CC[C@H](C)[C@H](NC(=O)[C@H](C)NC(=O)CNC(=O)[C@H](Cc1ccccc1)NC(=O)[C@H](CC(N)=O)NC(=O)[C@@H]1CCCN1C(=O)[C@H](CO)NC(=O)[C@H](CO)NC(=O)[C@H](Cc1c[nH]cn1)NC(=O)[C@H](CCCNC(=N)N)NC(=O)[C@H](CC(C)C)NC(=O)[C@H](Cc1ccccc1)NC(=O)[C@H](CCC(=O)O)NC(=O)[C@H](C)NC(=O)[C@H](CC(C)C)NC(=O)[C@H](CCCNC(=N)N)NC(=O)[C@H](CCC(N)=O)NC(=O)[C@@H](NC(=O)[C@H](C)NC(=O)[C@@H]1CSSC[C@H](NC(=O)[C@H](CCCCN)NC(=O)COCCOCCNC(=O)COCCOCCNC(=O)CC[C@H](NC(=O)CCCCCCCCCCCCCCCCCCC(=O)O)C(=O)O)C(=O)N[C@@H](CC(N)=O)C(=O)N[C@@H]([C@@H](C)O)C(=O)N[C@@H](C)C(=O)N[C@@H]([C@@H](C)O)C(=O)N1)[C@@H](C)O)C(=O)N1CCC[C@H]1C(=O)N[C@@H](CO)C(=O)N[C@@H](CO)C(=O)N[C@H](C(=O)N[C@@H](CC(N)=O)C(=O)N[C@H](C(=O)NCC(=O)N[C@@H](CO)C(=O)N[C@@H](CC(N)=O)C(=O)N[C@H](C(=O)N1CCC[C@H]1C(N)=O)[C@@H](C)O)C(C)C)[C@@H](C)O, Derivative of human amylin; also called compound 20)
54.5 | 29 | 96.4 nM | 1.77 nM | KCNTATCATQRLANFLRHSSPNFGAIPSSTNVGRNTY (C20 diacid-gGlu acylated on the alpha amino group of the N-terminal residue (Lys 1); disulfide Cys2-Cys7; C-terminal amide, Derivative of human amylin; also called compound 39) [N^α1-[(4S)-4-carboxy-4-(19-carboxynonadecanoylamino)butanoyl]-[Arg17,Pro21,Pro27,Arg34]-h-amylin]
